Measured values: patent US20210070881A1 (DENALI THERAPEUTICS, published 2021)
Where a chain is given by its changes, count along the chain named.

B1: 2H8.18 (antibody, human IgG1, V domains shown)
VH: EVQLQQSGAELVRPGTSVKLSCKASGYTFNNYWMHWVKQRPGQGLEWIGMIDPSDDDIKNNQKFKGKATLTVDTSSSTAYMQLISLTSEDSAVYYCARSGVALPYWGQGTLVTVSA
VL: DIQMTQSQKFMSTSIGDRVSVTCKASQNVGTNVAWYQQKPGQSPKSLIYSASHWYSGVPDRFTGSGSGTDFTLTISNVQSEDLAEYFCQQYNSYPYTFGGGTKLEIK
notes: human IgG1/kappa; also called 2H8_HCvar6 + 2H8_LCvar3
B2: 2H8.08 (antibody, human IgG1, V domains shown)
VH: EVQLQQPGTELVRPGTSVKLSCKASGYTFTNYWMHWIKQRPGQGLEWIGMIDPSDTYTKFNQNFKGKATLTVDTSSSTAYMQLNSLTSEDSAVYYCARSGVAFPYWGQGTTVTVSS
VL: B1 VL with Q3V, I15V, S46A, W54R, P95M
notes: human IgG1/kappa; also called 2H8_HCvar2 + 2H8_LCvar2
B3: 2H8.10 (antibody, human IgG1, V domains shown)
VH: B2 VH with V2I, P7S, I37V, D55A, T56A, K59N, F60Y, S77G, N84S
VL: B1 VL with Q3V, I15V, S46A, W54R, P95M
notes: human IgG1/kappa; also called 2H8_HCvar4 + 2H8_LCvar2
B4: 2H8.22 (antibody, human IgG1, V domains shown)
VH: B2 VH with V2I, P7S, I37V, D55A, T56A, K59N, F60Y, S77G, N84S
VL: B1 VL with Q3V, I15V, V21I, S46A, H53Y, W54R
notes: human IgG1/kappa; also called 2H8_HCvar4 + 2H8_LCvar4
B5: 2H8.11 (antibody, human IgG1, V domains shown)
VH: EVQLQQPGAEVVRPGTSVKLSCKASGYTFTNYWMHWVKQRPGQGLEWIGMIDPSDNYTKYNQKLKGKATLTVDTSSSTANMHVNSLTSEDSAVYFCARSGVAFPYWGQGTLVTVSA
VL: B1 VL with Q3V, I15V, S46A, W54R, P95M
notes: human IgG1/kappa; also called 2H8_HCvar5 + 2H8_LCvar2
B6: 2H8.33 (antibody, human IgG1, V domains shown)
VH: EVQLQQSGAELVRPGTSVKLSCKASGYTFTSYWIHWVKQRPGQGLEWIGMIDPSDSYTKYNQKFKDKATLTVDTSSSTTYMHLSSLTSEDSAVYYCARSGVAFPYWGQRTLVTVSA
VL: B1 VL with T13K, I15V, T31S, P40S, W54R, E85D, K103R
notes: human IgG1/kappa; also called 2H8_HCvar3 + 2H8_LCvar6
B7: 2H8.17 (antibody, human IgG1, V domains shown)
VH: B5 VH
VL: B1 VL
notes: human IgG1/kappa; also called 2H8_HCvar5 + 2H8_LCvar3
B8: 2H8.13 (antibody, human IgG1, V domains shown)
VH: B6 VH with A9P, R13K, T16A, S31N, Y32F, V37L, D66A
VL: B1 VL
notes: human IgG1/kappa; also called 2H8_HC + 2H8_LCvar3
B9: 2H8.36 (antibody, human IgG1, V domains shown)
VH: B1 VH
VL: B1 VL with T13K, I15V, T31S, P40S, W54R, E85D, K103R
notes: human IgG1/kappa; also called 2H8_HCvar6 + 2H8_LCvar6
B10: 2H8.07 (antibody, human IgG1, V domains shown)
VH: B6 VH with A9P, R13K, T16A, S31N, Y32F, V37L, D66A
VL: B1 VL with Q3V, I15V, S46A, W54R, P95M
notes: human IgG1/kappa; also called 2H8_HC + 2H8_LCvar2
B11: 2H8.25 (antibody, human IgG1, V domains shown)
VH: B6 VH with A9P, R13K, T16A, S31N, Y32F, V37L, D66A
VL: B1 VL with Q3V, I15V, P40S, S46A, W54R
notes: human IgG1/kappa; also called 2H8_HC + 2H8_LCvar5
B12: 2H8.19 (antibody, human IgG1, V domains shown)
VH: B6 VH with A9P, R13K, T16A, S31N, Y32F, V37L, D66A
VL: B1 VL with Q3V, I15V, V21I, S46A, H53Y, W54R
notes: human IgG1/kappa; also called 2H8_HC + 2H8_LCvar4
B13: 2H8.20 (antibody, human IgG1, V domains shown)
VH: B2 VH
VL: B1 VL with Q3V, I15V, V21I, S46A, H53Y, W54R
notes: human IgG1/kappa; also called 2H8_HCvar2 + 2H8_LCvar4
B14: 2H8.28 (antibody, human IgG1, V domains shown)
VH: B2 VH with V2I, P7S, I37V, D55A, T56A, K59N, F60Y, S77G, N84S
VL: B1 VL with Q3V, I15V, P40S, S46A, W54R
notes: human IgG1/kappa; also called 2H8_HCvar4 + 2H8_LCvar5
B15: 2H8.06 (antibody, human IgG1, V domains shown)
VH: B1 VH
VL: B1 VL with Q3V, T13K, I15V, R18T, N28D, T31R, P40S, W54R, E85D, K103R
notes: human IgG1/kappa; also called 2H8_HCvar6 + 2H8_LC
B16: 2H8.12 (antibody, human IgG1, V domains shown)
VH: B1 VH
VL: B1 VL with Q3V, I15V, S46A, W54R, P95M
notes: human IgG1/kappa; also called 2H8_HCvar6 + 2H8_LCvar2
B17: 2H8.24 (antibody, human IgG1, V domains shown)
VH: B1 VH
VL: B1 VL with Q3V, I15V, V21I, S46A, H53Y, W54R
notes: human IgG1/kappa; also called 2H8_HCvar6 + 2H8_LCvar4

Target: T1, recombinant BACE1 (BACE1 extracellular domain, R&D Systems Cat#931-AS) (UniProt P56817 22-457)
T1 construct: extracellular domain; also called BACE1 extracellular domain protein
Experiment: SPR Biacore

T1 sequence (P56817 22-457): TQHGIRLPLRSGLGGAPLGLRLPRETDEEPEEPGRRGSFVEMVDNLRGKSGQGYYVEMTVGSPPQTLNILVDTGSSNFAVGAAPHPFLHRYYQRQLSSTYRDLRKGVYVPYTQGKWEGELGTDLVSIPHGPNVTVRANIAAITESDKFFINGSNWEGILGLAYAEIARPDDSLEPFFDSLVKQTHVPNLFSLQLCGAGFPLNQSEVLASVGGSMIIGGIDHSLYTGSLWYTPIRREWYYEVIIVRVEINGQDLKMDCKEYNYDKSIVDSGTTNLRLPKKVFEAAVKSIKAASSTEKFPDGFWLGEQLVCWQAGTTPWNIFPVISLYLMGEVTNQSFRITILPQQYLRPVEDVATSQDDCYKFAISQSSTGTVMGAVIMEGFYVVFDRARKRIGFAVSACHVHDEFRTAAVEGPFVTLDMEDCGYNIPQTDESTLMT

Binder	Kd [nM]	koff [s⁻¹]	kon [M⁻¹ s⁻¹]
B1	32.4	0.00039	12000
B2	20.9	0.000299	14300
B3	62	0.000878	14200
B4	304	0.0109	35900
B5	17.7	0.000235	13300
B6	11.8	0.000171	14500
B7	19	0.000259	13600
B8	19.8	0.000308	15500
B9	23.5	0.000273	11600
B10	20	0.000294	14700
B11	15.2	0.000251	16500
B12	42.5	0.000674	15900
B13	93.4	0.00147	15800
B14	34	0.00062	18200
B15	16	0.000264	16500
B16	171	0.00166	9680
B17	183	0.00243	13300
